Test results: the supplement of paper PMC9233669
Fewer inactive variants are shown than the library holds.

How the values were obtained:
biotinyl-Trp-oxazolone = test: self-aminoacylation, catalytic enhancement (BWO) (fold over background); higher = more active; k-Seq, kA / k0A0; sequences stand for … in GGGAAUGGAUCCACAUCUACGAAUUC…UUCACUGCAGACUUGACGAAGCUG
Outline: (§1)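 The uncatalyzed rate is the low-activity peak of a bimodal Gaussian fit, and catalytic enhancement is median kA divided by it. The kA values came from pseudo-first-order fits, with 1000 bootstraps, of per-sequence fraction reacted measured by streptavidin capture, triplicate qPCR and Illumina sequencing. Mutagenized RNA pools with a 21-nt variable region (0.43 μM) were reacted with each biotinyl-aminoacyl-oxazolone at 2–1250 μM in 50 μL HEPES/NaCl/KCl/MgCl2/CaCl2 buffer with 5% acetonitrile, pH 6.9–7.0, for 90 minutes at room temperature.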

biotinyl-Leu-oxazolone = test: self-aminoacylation, catalytic enhancement (BLO) (fold over background); higher = more active; k-Seq, kA / k0A0; sequences stand for … in GGGAAUGGAUCCACAUCUACGAAUUC…UUCACUGCAGACUUGACGAAGCUG
Outline: as §1

biotinyl-Met-oxazolone = test: self-aminoacylation, catalytic enhancement (BMO) (fold over background); higher = more active; k-Seq, kA / k0A0; sequences stand for … in GGGAAUGGAUCCACAUCUACGAAUUC…UUCACUGCAGACUUGACGAAGCUG
Outline: as §1

biotinyl-Ile-oxazolone = test: self-aminoacylation, catalytic enhancement (BIO) (fold over background); higher = more active; k-Seq, kA / k0A0; sequences stand for … in GGGAAUGGAUCCACAUCUACGAAUUC…UUCACUGCAGACUUGACGAAGCUG
Outline: as §1

biotinyl-Phe-oxazolone = test: self-aminoacylation, catalytic enhancement (BFO) (fold over background); higher = more active; k-Seq, kA / k0A0; sequences stand for … in GGGAAUGGAUCCACAUCUACGAAUUC…UUCACUGCAGACUUGACGAAGCUG
Outline: as §1

biotinyl-Val-oxazolone = test: self-aminoacylation, catalytic enhancement (BVO) (fold over background); higher = more active; k-Seq, kA / k0A0; sequences stand for … in GGGAAUGGAUCCACAUCUACGAAUUC…UUCACUGCAGACUUGACGAAGCUG
Outline: as §1

Sequence | self-aminoacylation (biotinyl-Trp-oxazolone) | self-aminoacylation (biotinyl-Leu-oxazolone) | self-aminoacylation (biotinyl-Met-oxazolone) | self-aminoacylation (biotinyl-Ile-oxazolone) | self-aminoacylation (biotinyl-Phe-oxazolone) | self-aminoacylation (biotinyl-Val-oxazolone)
AACUUUGCUAAUAGUCGGAAG [Fam3.1 aminoacylation ribozyme variant] | 1.49 | 1.15 | 1.38 | 1.43 | 3.03 | 1.4
AACUUUGCUAAUGGUCGCAAG [Fam3.1 aminoacylation ribozyme variant] | 3.24 | 2.64 | 2.44 | 2.47 | 9.47 | 2.43
AACUUUGCUAAUUGUCGCAAG [Fam3.1 aminoacylation ribozyme variant] | 4.3 | 2.44 | 2.71 | 2.78 | 9.97 | 2.39
AACUUUGCUACUAGUCGCAAG [Fam3.1 aminoacylation ribozyme variant] | 2.43 | 1.91 | 2.34 | 2.14 | 3.3 | 2.24
AACUUUGCUAGUAGUCGCAAG [Fam3.1 aminoacylation ribozyme variant] | 3.53 | 2.9 | 2.63 | 2.68 | 3.31 | 2.67
AACUUUUCUAAUAGUCGCAAG [Fam3.1 aminoacylation ribozyme variant] | 2.05 | 2.33 | 2.11 | 1.97 | 3.55 | 1.71
AAGAUAGCUAAUAGUCGCAAG [Fam3.1 aminoacylation ribozyme variant] | 1.34 | 1.82 | 1.57 | 1.63 | 2.4 | 1.34
AAGAUUGCAAAUAGUCGCAAG [Fam3.1 aminoacylation ribozyme variant] | 2.48 | 1.58 | 1.27 | 1.43 | 1.38 | 1.29
AAGAUUGCCAAUAGUCGCAAG [Fam3.1 aminoacylation ribozyme variant] | 1.88 | 1.63 | 1.8 | 1.51 | 1.69 | 1.81
AAGAUUGCUAAAAGUCGCAAG [Fam3.1 aminoacylation ribozyme variant] | 1.56 | 1.76 | 1.87 | 1.66 | 3.21 | 1.61
AAGAUUGCUAAUAGUCGAAAG [Fam3.1 aminoacylation ribozyme variant] | 1.34 | 0.966 | 1.03 | 1.28 | 2.96 | 0.945
AAGAUUGCUAAUAGUCGCAAG [Fam3.1 aminoacylation ribozyme variant] | 2.15 | 1.33 | 1.32 | 1.53 | 4.83 | 1.31
AAGAUUGCUAAUAGUCGCAUG [Fam3.1 aminoacylation ribozyme variant] | 1.46 | 1.91 | 1.45 | 1.68 | 1.36 | 1.39
AAGAUUGCUAAUAGUCGGAAG [Fam3.1 aminoacylation ribozyme variant] | 1.54 | 0.837 | 0.909 | 1.4 | 1.84 | 1.22
AAGCUAGCUAAUAGUCGCAAG [Fam3.1 aminoacylation ribozyme variant] | 2.47 | 2.26 | 1.36 | 2.2 | 4.5 | 1.62
AAGCUCGCUAAUAGUCGCAAG [Fam3.1 aminoacylation ribozyme variant] | 2.2 | 2.49 | 1.75 | 2.09 | 3.66 | 1.95
AAGCUUGCUAAUAGUCGAAAG [Fam3.1 aminoacylation ribozyme variant] | 1.88 | 1.16 | 1.73 | 1.58 | 3.53 | 1.35
AAGCUUGCUAAUAGUCGCAAC [Fam3.1 aminoacylation ribozyme variant] | 1.32 | 1.44 | 1.28 | 1.86 | 2.11 | 1.24
AAGCUUGCUAAUAGUCGCAAG [Fam3.1 aminoacylation ribozyme variant] | 2.02 | 1.67 | 1.69 | 1.85 | 3.96 | 1.59
AAGCUUGCUAAUCGUCGCAAG [Fam3.1 aminoacylation ribozyme variant] | 2.85 | 1.65 | 1.55 | 1.85 | 2.14 | 1.45
AAGGUUGCUAAUAGUCGCUAG [Fam3.1 aminoacylation ribozyme variant] | 1.27 | 1.19 | 1.03 | 1.3 | 1.54 | 1.03
AAGGUUGCUAAUAGUCGGAAG [Fam3.1 aminoacylation ribozyme variant] | 3.38 | 1.23 | 1.08 | 1.51 | 4.52 | 0.973

Sequence | self-aminoacylation (biotinyl-Trp-oxazolone) | self-aminoacylation (biotinyl-Leu-oxazolone) | self-aminoacylation (biotinyl-Met-oxazolone) | self-aminoacylation (biotinyl-Ile-oxazolone) | self-aminoacylation (biotinyl-Phe-oxazolone) | self-aminoacylation (biotinyl-Val-oxazolone)
AAGGUUGCUAAUUGUCGCAAG [Fam3.1 aminoacylation ribozyme variant] | 2.85 | 1.14 | 1.36 | 1.56 | 1.4 | 1.41
AAGGUUGCUAGUAGUCGCAAG [Fam3.1 aminoacylation ribozyme variant] | 1.3 | 0.971 | 1.3 | 1.18 | 1.77 | 1.07
AAGGUUUCUAAUAGUCGCAAG [Fam3.1 aminoacylation ribozyme variant] | 1.6 | 1.05 | 1.04 | 1.64 | 2.65 | 1.53
AAGUAUGCCAAUAGUCGCAAG [Fam3.1 aminoacylation ribozyme variant] | 1.43 | 1.53 | 1.77 | 2.21 | 2.34 | 1.46
AAGUAUGCUAAUAGCCGCAAG [Fam3.1 aminoacylation ribozyme variant] | 2.58 | 1.16 | 1.06 | 1.49 | 5.73 | 1.05
AAGUAUGCUAAUAGUCUCAAG [Fam3.1 aminoacylation ribozyme variant] | 2.69 | 1.6 | 1.55 | 1.43 | 8.35 | 1.31
AAGUAUGCUAUUAGUCGCAAG [Fam3.1 aminoacylation ribozyme variant] | 1.76 | 1.68 | 1.38 | 1.66 | 1.49 | 1.59
AAGUAUUCUAAUAGUCGCAAG [Fam3.1 aminoacylation ribozyme variant] | 1.83 | 1.71 | 1.58 | 1.61 | 7.07 | 1.6
AAGUCCGCUAAUAGUCGCAAG [Fam3.1 aminoacylation ribozyme variant] | 10.7 | 2.02 | 2.99 | 2.43 | 46.3 | 2.09
AAGUCUGCUAAAAGUCGCAAG [Fam3.1 aminoacylation ribozyme variant] | 6.66 | 1.72 | 1.92 | 1.35 | 23.1 | 1.23
AAGUCUGCUAAUAGUCCCAAG [Fam3.1 aminoacylation ribozyme variant] | 2.43 | 1.15 | 1.38 | 0.928 | 7.42 | 0.893
AAGUCUGCUAAUAGUCGCAGG [Fam3.1 aminoacylation ribozyme variant] | 1.97 | 2.25 | 2.07 | 1.7 | 5.31 | 1.44
AAGUCUGCUAAUAGUCGGAAG [Fam3.1 aminoacylation ribozyme variant] | 7.78 | 1.87 | 2.09 | 1.25 | 18.4 | 1.61
AAGUCUGCUAAUAGUGGCAAG [Fam3.1 aminoacylation ribozyme variant] | 1.17 | 0.866 | 0.98 | 0.678 | 3.1 | 0.765
AAGUCUGCUAGUAGUCGCAAG [Fam3.1 aminoacylation ribozyme variant] | 0.88 | 1.44 | 0.975 | 0.775 | 1.06 | 1.06
AAGUCUGCUUAUAGUCGCAAG [Fam3.1 aminoacylation ribozyme variant] | 0.87 | 1.25 | 1.18 | 0.895 | 1.42 | 0.822
AAGUCUGUUAAUAGUCGCAAG [Fam3.1 aminoacylation ribozyme variant] | 0.936 | 1.01 | 1.03 | 1.14 | 1.04 | 1.03
AAGUGUGCUAAUAAUCGCAAG [Fam3.1 aminoacylation ribozyme variant] | 1.09 | 0.989 | 1.25 | 1.35 | 1.51 | 1.29
AAGUGUGCUAAUAGUAGCAAG [Fam3.1 aminoacylation ribozyme variant] | 1.6 | 1.21 | 1.02 | 1.27 | 1.65 | 1.33
AAGUGUGCUAAUGGUCGCAAG [Fam3.1 aminoacylation ribozyme variant] | 1.21 | 0.792 | 0.926 | 0.864 | 2.15 | 1.06
AAGUGUGCUAAUUGUCGCAAG [Fam3.1 aminoacylation ribozyme variant] | 2.65 | 1.51 | 1.45 | 1.5 | 1.56 | 1.49
